Experimental data reported in patent publication US20240410900A1.

Experiments:
[1] = biological target: targeted IgG-IL2 (interleukin-2 fused to the C-terminus of a heavy chain of an antibody specifically binding to a therapeutic target); test: bridging ELISA, drug-Bi and drug-Dig, human pooled serum, binder 7.8 ng/mL assay / 156 ng/mL matrix
[2] = biological target: TCB (T-cell bispecific format) drug antibody; test: as above
[3] = biological target: non-targeted IgG-IL2 (interleukin-2 fused to the C-terminus of a heavy chain of a germline antibody, which is not binding to a target); test: as above
[4] = biological target: TCB (T-cell bispecific format) drug antibody; test: bridging ELISA, drug-Bi and drug-Dig, human pooled serum, binder 500 ng/mL assay / 10000 ng/mL matrix
[5] = biological target: non-targeted IgG-IL2 (interleukin-2 fused to the C-terminus of a heavy chain of a germline antibody, which is not binding to a target); test: as above
[6] = biological target: non-targeted IgG-IL2 (interleukin-2 fused to the C-terminus of a heavy chain of a germline antibody, which is not binding to a target); test: bridging ELISA, IgG-IL2-Bi and -Dig, binder 0.03 ng/mL assay / 0.6 ng/mL matrix
[7] = biological target: targeted IgG-IL2 (interleukin-2 fused to the C-terminus of a heavy chain of an antibody specifically binding to a therapeutic target); test: bridging ELISA, drug-Bi and drug-Dig, human pooled serum, binder 3.9 ng/mL assay / 78 ng/mL matrix
[8] = biological target: TCB (T-cell bispecific format) drug antibody; test: as above
[9] = biological target: non-targeted IgG-IL2 (interleukin-2 fused to the C-terminus of a heavy chain of a germline antibody, which is not binding to a target); test: as above
[10] = biological target: non-targeted IgG-IL2 (interleukin-2 fused to the C-terminus of a heavy chain of a germline antibody, which is not binding to a target); test: bridging ELISA, IgG-IL2-Bi and -Dig, binder 63 ng/mL assay / 1250 ng/mL matrix
[11] = biological target: non-targeted IgG-IL2 (interleukin-2 fused to the C-terminus of a heavy chain of a germline antibody, which is not binding to a target); test: bridging ELISA, IgG-IL2-Bi and -Dig, binder 0.5 ng/mL assay / 10 ng/mL matrix
[12] = biological target: non-targeted IgG-IL2 (interleukin-2 fused to the C-terminus of a heavy chain of a germline antibody, which is not binding to a target); test: bridging ELISA, IgG-IL2-Bi and -Dig, binder 250 ng/mL assay / 5000 ng/mL matrix
[13] = biological target: targeted IgG-IL2 (interleukin-2 fused to the C-terminus of a heavy chain of an antibody specifically binding to a therapeutic target); test: bridging ELISA, drug-Bi and drug-Dig, human pooled serum, binder 0.00 ng/mL (blank)
[14] = biological target: TCB (T-cell bispecific format) drug antibody; test: as above
[15] = biological target: non-targeted IgG-IL2 (interleukin-2 fused to the C-terminus of a heavy chain of a germline antibody, which is not binding to a target); test: as above
[16] = biological target: non-targeted IgG-IL2 (interleukin-2 fused to the C-terminus of a heavy chain of a germline antibody, which is not binding to a target); test: bridging ELISA, IgG-IL2-Bi and -Dig, binder 0.00 ng/mL (blank)
[17] = biological target: targeted IgG-IL2 (interleukin-2 fused to the C-terminus of a heavy chain of an antibody specifically binding to a therapeutic target); test: bridging ELISA, drug-Bi and drug-Dig, human pooled serum, binder 125 ng/mL assay / 2500 ng/mL matrix
[18] = biological target: TCB (T-cell bispecific format) drug antibody; test: as above
[19] = biological target: non-targeted IgG-IL2 (interleukin-2 fused to the C-terminus of a heavy chain of a germline antibody, which is not binding to a target); test: as above
[20] = biological target: non-targeted IgG-IL2 (interleukin-2 fused to the C-terminus of a heavy chain of a germline antibody, which is not binding to a target); test: bridging ELISA, IgG-IL2-Bi and -Dig, binder 16 ng/mL assay / 313 ng/mL matrix
[21] = biological target: non-targeted IgG-IL2 (interleukin-2 fused to the C-terminus of a heavy chain of a germline antibody, which is not binding to a target); test: bridging ELISA, IgG-IL2-Bi and -Dig, binder 125 ng/mL assay / 2500 ng/mL matrix
[22] = biological target: non-targeted IgG-IL2 (interleukin-2 fused to the C-terminus of a heavy chain of a germline antibody, which is not binding to a target); test: bridging ELISA, IgG-IL2-Bi and -Dig, binder 31 ng/mL assay / 625 ng/mL matrix
[23] = biological target: non-targeted IgG-IL2 (interleukin-2 fused to the C-terminus of a heavy chain of a germline antibody, which is not binding to a target); test: bridging ELISA, IgG-IL2-Bi and -Dig, binder 2.0 ng/mL assay / 39 ng/mL matrix
[24] = biological target: targeted IgG-IL2 (interleukin-2 fused to the C-terminus of a heavy chain of an antibody specifically binding to a therapeutic target); test: bridging ELISA, drug-Bi and drug-Dig, human pooled serum, binder 0.49 ng/mL assay / 10 ng/mL matrix
[25] = biological target: TCB (T-cell bispecific format) drug antibody; test: as above
[26] = biological target: non-targeted IgG-IL2 (interleukin-2 fused to the C-terminus of a heavy chain of a germline antibody, which is not binding to a target); test: as above

signal [AU] [1]: 0.475 AU | signal [AU] [2]: 0.654 AU | signal [AU] [3]: 0.137 AU | signal [AU] [4]: 2.99 AU | signal [AU] [5]: 2.81 AU | signal [AU] [6]: 0.0525 AU | signal [AU] [7]: 0.261 AU | signal [AU] [8]: 0.35 AU | signal [AU] [9]: 0.088 AU | signal [AU] [10]: 2.85 AU | signal [AU] [11]: 0.0825 AU | signal [AU] [12]: 3.04 AU | signal [AU] [13]: 0.0395 AU | signal [AU] [14]: 0.0425 AU | signal [AU] [15]: 0.041 AU | signal [AU] [16]: 0.053 AU | signal [AU] [17]: 3.05 AU | signal [AU] [18]: 3.05 AU | signal [AU] [19]: 1.4 AU | signal [AU] [20]: 0.996 AU | signal [AU] [21]: 3.08 AU | signal [AU] [22]: 1.89 AU | signal [AU] [23]: 0.165 AU | signal [AU] [24]: 0.0675 AU | signal [AU] [25]: 0.0835 AU | signal [AU] [26]: 0.045 AU
B1: multivalent anti-PG antibody derived from clone 1.7.24 (mixed Pool 2, 3, 4) (antibody, V domains shown)
VH: EVKLLESGGGLVQPGGSLKLSCAASGFDFSRYWMNWVRQAPGKGLEWIGEITPDSSTINYTPSLKDKFIISRDNAKNTLYLQMIKVRSEDTALYYCVRPYDYGAWFASWGQGTLVTVSA
VL: QAVVTQESALTTSPGETVTLTCRSSTGAVTTSNYANWVQEKPDHLFTGLIGGTNKRAPGVPARFSGSLIGDKAALTITGAQTEDEAIYFCALWYSNHWVFGGGTKLTVL
modifications: lysine amines derivatised with SATP or MHS and cross-linked (sites not given)
